From IntAct's records for PubMed 30564455

Target: ddb1_human DDB1 (UniProt Q16531)
Sequence (Q16531 whole entry): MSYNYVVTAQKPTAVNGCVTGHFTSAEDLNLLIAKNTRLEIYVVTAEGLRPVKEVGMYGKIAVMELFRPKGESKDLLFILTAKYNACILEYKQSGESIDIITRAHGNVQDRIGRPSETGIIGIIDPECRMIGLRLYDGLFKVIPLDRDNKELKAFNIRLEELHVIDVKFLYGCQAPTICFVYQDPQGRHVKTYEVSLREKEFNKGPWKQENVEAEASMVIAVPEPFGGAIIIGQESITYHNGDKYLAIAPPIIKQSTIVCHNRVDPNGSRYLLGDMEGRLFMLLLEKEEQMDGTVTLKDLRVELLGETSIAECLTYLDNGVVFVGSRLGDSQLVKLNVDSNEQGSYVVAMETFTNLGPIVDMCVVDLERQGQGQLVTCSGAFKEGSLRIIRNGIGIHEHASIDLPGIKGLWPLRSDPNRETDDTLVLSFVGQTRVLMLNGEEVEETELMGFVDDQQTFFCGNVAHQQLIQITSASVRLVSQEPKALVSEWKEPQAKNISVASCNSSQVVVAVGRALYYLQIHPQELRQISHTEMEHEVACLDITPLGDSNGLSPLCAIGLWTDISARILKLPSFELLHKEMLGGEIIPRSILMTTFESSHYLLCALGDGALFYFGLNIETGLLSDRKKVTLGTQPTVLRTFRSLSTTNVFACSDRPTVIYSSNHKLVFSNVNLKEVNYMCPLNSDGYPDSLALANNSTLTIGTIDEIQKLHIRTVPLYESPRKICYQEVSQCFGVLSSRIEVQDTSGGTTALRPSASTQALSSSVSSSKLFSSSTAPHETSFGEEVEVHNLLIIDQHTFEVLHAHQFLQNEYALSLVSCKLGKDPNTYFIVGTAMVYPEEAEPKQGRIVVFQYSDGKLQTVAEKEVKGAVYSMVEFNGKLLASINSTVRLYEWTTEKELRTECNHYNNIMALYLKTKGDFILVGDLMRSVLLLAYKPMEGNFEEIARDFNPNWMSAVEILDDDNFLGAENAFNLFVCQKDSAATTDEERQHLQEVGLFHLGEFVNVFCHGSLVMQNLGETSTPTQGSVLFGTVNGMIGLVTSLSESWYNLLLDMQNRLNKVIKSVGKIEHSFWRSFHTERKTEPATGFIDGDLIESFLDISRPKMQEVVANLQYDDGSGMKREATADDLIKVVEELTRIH

Substance | effect of a mutation on the interaction
DET1- and DDB1-associated protein 1 (Homo sapiens) (from UniProt Q9BW61) F16D | disrupting interaction strength
DET1- and DDB1-associated protein 1 (Homo sapiens) (from UniProt Q9BW61) H20D | disrupting interaction strength
DET1- and DDB1-associated protein 1 (Homo sapiens) (from UniProt Q9BW61) N15D | disrupting interaction strength
DET1- and DDB1-associated protein 1 (Homo sapiens) (from UniProt Q9BW61) P9D | disrupting interaction strength
